Like-named read-outs stand apart in the source and are kept apart here.
Legend:
HPV-11 E1 helicase = biological target: T1, HPV-11 E1 helicase (Human papillomavirus 11, UniProt P04014); test: E1 helicase SPA high-throughput assay, inhibition (IC50 curves); format: biochemical, human papillomavirus type 11
T1 construct: made in house; host or cells: SF21 insect cells, recombinant baculovirus (Bac-to-Bac, pFASTBAC1)
Excerpt: In this assay, the duplex DNA substrate consists of M13 single-stranded DNA (about 8000 bases) to which is annealed a 19 base oligodeoxynucleotide (see FIG. 6). This partial duplex is extended to 24 bases with the incorporation of [^33 P]-labeled dATP by a reaction with the Klenow fragment of DNA polymerase I. Helicase activity results in the separation of this radiolabeled oligo from the M13 DNA. In the absence of a functional helicase, the double-stranded DNA substrate is stable for several hours at the assay temperature.
To detect activity, a second 24-base deoxyoligonucleotide, complementary to the substrate oligo, is added to the reaction mixture in a second step. […]
In the third step, streptavidin-coated SPA beads (Amersham Life Science, code TRKQ7030) are added to the mixture. […] Thus radiolabeled oligo annealed to the biotinylated oligo will be detected, whereas unreacted substrate still hybridized to M13 is not in close proximity to the beads and will not be detected.
In the presence of an inhibitor, less substrate is unwound, so a lower signal is detected. […] The M13 DNA competes with the labeled M13 substrate and inhibits the signal detected. […]
Assay buffer, used for all dilutions, consisted of 20 mM MES, pH 7.0, 10% glycerol, 1.0 mM DTT, and 0.05 mM EDTA. […] Sufficient E1 is used to give approximately 20% unwinding (as determined in Example 9). […]

[1] = system: partial duplex DNA substrate; settings: Yang, PNAS (1993), assayed at 32°; cited from earlier work
[2] = biological target: HPV-11 E2 protein (human papillomavirus type 11) (UniProt P04015); test: E2-dependent E1 DNA binding assay: E1/E2/ori complex with radiolabeled origin probe, captured with K72 antiserum on protein A-SPA beads, scintillation counting
[3] = system: partial duplex DNA substrate; test: Helicase specific activity (unwinding of partial duplex DNA), this work; format: biochemical; settings: 37°, enzyme concentration greater than substrate
Method: The substrate for the analytical helicase assay consisted of a […] oligonucleotide (GTAAAACGACCAGTGCCAAGC) (SEQ ID NO. 11) end-labeled using [^33 P]ATP and polynucleotide kinase, annealed to M13mp18. Combined helicase/ATPase reactions contained 800 or 1600 ng of E1, 2 mM MgCl2, 1 mM ATP, and 1 μM helicase substrate (concentration in nucleotides) in a total volume of 80 μL of helicase assay buffer (20 mM MES, pH 7.0, 1 mM DTT, 0.05 mM EDTA, 10% glycerol). Reactions were incubated for 2 h at 37° and then placed on ice. […]
Helicase activity was quantitated as follows:
A separate reaction mixture, containing no enzyme was heated to 95° for 10 min., and the resulting free substrate oligonucleotide (completely denatured) was detected as described for reaction mixtures. […] Quantitation of unwinding is calculated relative to the boiled sample with background subtracted.
In all cases the enzyme concentration was greater than the substrate concentration and the substrate was partial duplex DNA. […] The SV-40 TAg was also assessed in the literature and V of 50 and 80 % unwinding/μm protein/min were obtained from these groups respectively (Goetz, JBC (1988); Stahl, EMBO (1986)). […]

CC[n+]1c(-c2ccccc2)c2cc(N)ccc2c2ccc(N)cc21 [ethidium bromide]
IC50 (HPV-11 E1 helicase): ~4 µM

BPV E1: bovine papillomavirus E1 helicase, literature value (Yang, PNAS 1993)
Helicase Activity V (% unwinding/μM protein/min) [1]: 2.9 % unwinding/μM protein/min

HPV-11 His-E1 protein (wild type) (enzyme)
signal over background (fold) [2]: 20 to 30 fold

B1: HPV-11 E1: His-tagged E1 helicase of human papillomavirus type 11, low-salt nuclear extraction, Ni affinity purified (SEQ ID NO.26) (protein)
chain: MADDSGTENEGSGCTGWFMVEAIVEHTTGTQISEDEEEEVEDSGYDMVDFIDDRHITQNSVEAQALFNRQEADAHYATVQDLKRKYLGSPYVSPISNVANAVESEISPRLDAIKLTTQPKKVKRRLFETRELTDSGYGYSEVEAATQVEKHGDPENGGDGEERDTGRDIEGEGVEHREAEAVDDSTREHADTSGILELLKCKDIRSTLHGKFKDCFGLSFVDLIRPFKSDRTTCADWVVAGFGIHHSIADAFQKLIEPLSLYAHIQWLTNAWGMVLLVLIRFKVNKSRCTVARTLGTLLNIPENHMLIEPPKIQSGVAALYWFRTGISNASTVIGEAPEWITRQTVIEHSLADSQFKLTEMVQWAYDNDICEESEIAFEYAQRGDFDSNARAFLNSNMQAKYVKDCAIMCRHYKHAEMKKMSIKQWIKYRGTKVDSVGNWKPIVQFLRHQNIEFIPFLSKLKLWLHGTPKKNCIAIVGPPDTGKSCFCMSLIKFLGGTVISYVNSCSHFWLQPLTDAKVALLDDATQPCWTYMDTYMRNLLDGNPMSIDRKHRALTLIKCPPLLVTSNIDISKEEKYKYLHSRVTTFTFPNPFPFDRNGNAVYELSDANWKCFFERLSSSLDIEDSEDEEDGSNSQAFRCVPGSVVRTL
modifications: His tag
Helicase Activity V (% unwinding/μM protein/min) [3]: 2.5 % unwinding/μM protein/min

B2: HPV-6a E1: His-tagged E1 helicase of human papillomavirus type 6a purified according to the invention (SEQ ID NO.27) (protein)
chain: MADDSGTENEGSGCTGWFMVEAIVQHPTGTQISDDEDEEVEDSGYDMVDFIDDSNITHNSLEAQALFNRQEADTHYATVQDLKRKYLGSPYVSPINTIAEAVESEISPRLDAIKLTRQPKKVKRRLFQTRELTDSGYGYSEVEAGTGTQVEKHGVPENGGDGQEKDTGRDIEGEEHTEAEAPTNSVREHAGTAGILELLKCKDLRAALLGKFKECFGLSFIDLIRPFKSDKTTCLDWVVARFGIHHSISEAFQKLIEPLSLYAHIQWLTNAWGMVLLVLLRFKVNKSRSTVARTLATLLNIPENQMLIEPPKIQSGVAALYWFRTGISNASTVIGEAPEWITRQTVIEHGLADSQFKLTEMVQWAYDNDICEESEIAFEYAQRGDFDSNARAFLNSNMQAKYVKDCATMCRHYKHAEMRKMSIKQWIKHRGSKIEGTGNWKPIVQFLRHQNIEFIPFLTKFKLWLHGTPKKNCIAIVGPPDTGKSYFCMSLISFLGGTVISHVNSSSHFWLQPLVDAKVALLDDATQPCWIYMDTYMRNLLDGNPMSIDRKHKALTLIKCPPLLVTSNIDITKEDKYKYLHTRVTTFTFPNPFPFDRNGNAVYELSNTNWKCFFERLSSSLDIQDSEDEEDGSNSQAFRCVPGTVVRTL
modifications: His tag
Helicase Activity V (% unwinding/μM protein/min) [3]: 2.3 % unwinding/μM protein/min
